Source: US20200317768A1 (published 2020)
Substitutions are numbered along the chain they refer to. Names and notes keep the numbering of the source.

T1: cynomolgus monkey FcγRIIa2 extracellular domain, His-tagged (cynomolgus monkey)
T1 construct: also called cyno FcgRIIa2; cynoFcγRIIa2; not shown: His-tag added to the C-terminus
T1 chain: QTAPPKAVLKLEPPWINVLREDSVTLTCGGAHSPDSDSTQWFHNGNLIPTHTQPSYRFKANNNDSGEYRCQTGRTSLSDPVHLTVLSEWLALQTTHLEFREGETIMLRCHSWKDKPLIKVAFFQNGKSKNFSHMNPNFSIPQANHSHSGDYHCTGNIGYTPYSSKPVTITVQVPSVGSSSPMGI

T2: cynomolgus monkey FcγRIIa3 extracellular domain, His-tagged (cynomolgus monkey)
T2 construct: also called cyno FcgRIIa3; cynoFcγRIIa3; not shown: His-tag added to the C-terminus
T2 chain: T1 chain with K127I, N130K, H133P, Q142R

T3: cynomolgus monkey FcγRIIb extracellular domain, His-tagged (cynomolgus monkey)
T3 construct: also called cyno FcgRIIb; cynoFcγRIIb; not shown: His-tag added to the C-terminus
T3 chain: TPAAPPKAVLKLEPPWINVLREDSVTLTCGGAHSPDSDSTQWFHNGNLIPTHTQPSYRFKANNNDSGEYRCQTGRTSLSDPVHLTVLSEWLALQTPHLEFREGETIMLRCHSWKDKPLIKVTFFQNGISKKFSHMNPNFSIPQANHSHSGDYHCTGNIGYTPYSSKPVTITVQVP

T4: human FcγRIIaH extracellular domain, His-tagged (human, UniProt P12318 34-217)
T4 construct: also called human FcgRIIaH; FcγRIIa (type H); not shown: His-tag added to the C-terminus
T4 sequence: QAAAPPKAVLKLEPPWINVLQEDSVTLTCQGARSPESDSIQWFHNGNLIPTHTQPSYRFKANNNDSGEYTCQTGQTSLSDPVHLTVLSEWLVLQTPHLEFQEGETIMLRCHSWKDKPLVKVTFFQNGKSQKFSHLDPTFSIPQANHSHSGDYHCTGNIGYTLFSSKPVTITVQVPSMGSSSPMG

B1: MS1032LO06-SG1 (M103205H795-SG1/M103202L889-SK1) (antibody, human IgG1, kappa)
heavy: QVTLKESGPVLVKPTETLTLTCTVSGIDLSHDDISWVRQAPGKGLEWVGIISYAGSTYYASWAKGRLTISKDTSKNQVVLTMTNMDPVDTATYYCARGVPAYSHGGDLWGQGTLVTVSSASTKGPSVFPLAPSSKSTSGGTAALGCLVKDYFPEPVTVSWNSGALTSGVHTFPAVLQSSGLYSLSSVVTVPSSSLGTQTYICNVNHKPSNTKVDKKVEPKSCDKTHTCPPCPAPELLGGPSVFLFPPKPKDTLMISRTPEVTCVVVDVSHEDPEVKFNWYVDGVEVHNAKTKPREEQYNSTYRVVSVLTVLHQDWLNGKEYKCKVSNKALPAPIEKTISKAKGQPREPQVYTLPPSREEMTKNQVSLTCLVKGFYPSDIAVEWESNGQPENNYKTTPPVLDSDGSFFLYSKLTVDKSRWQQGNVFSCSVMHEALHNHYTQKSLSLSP
light: DIVMTQSPATLSLSPGERATLSCTSSQSVYHANWLSWFQQKPGQPPKLLIYWASTLAYGVPSRFSGSGSGTDFTLTISSLQPEDAATYYCAGGYGGGRYAFGQGTKVEIKRTVAAPSVFIFPPSDEQLKSGTASVVCLLNNFYPREAKVQWKVDNALQSGNSQESVTEQDSKDSTYSLSSTLTLSKADYEKHKVYACEVTHQGLSSPVTKSFNRGEC
notes: Anti-latent myostatin antibody; Parent of the Fc variants; copies: 2 + 2
B2: M103205H795-MY201/M103202L889-SK1 (antibody, human IgG1, kappa)
heavy: QVTLKESGPVLVKPTETLTLTCTVSGIDLSHDDISWVRQAPGKGLEWVGIISYAGSTYYASWAKGRLTISKDTSKNQVVLTMTNMDPVDTATYYCARGVPAYSHGGDLWGQGTLVTVSSASTKGPSVFPLAPSSKSTSGGTAALGCLVKDYFPEPVTVSWNSGALTSGVHTFPAVLQSSGLYSLSSVVTVPSSSLGTQTYICNVNHKPSNTKVDKKVEPKSCDKTHTCPPCPAPELLNGPSVFLFPPKPKDTLMISRTPEVTCVVVDVSDEDPEVKFNWYVDGVEVHNAKTKPREEQYNSTYRVVSVLTVLHQDWLNGKEYKCKVSNKALPKPIEKTISKAKGQPREPQVYTLPPSREEMTKNQVSLTCLVKGFYPSDIAVEWESNGQPENNYKTTPPVLDSDGSFFLYSKLTVDKSRWQQGNVFSCSVMHEALHNHYTQKSLSLSP
light: B1 light
notes: Fc variant G236N/H268D/A330K (EU numbering) of SG1; also called MS1032LO06-MY201; copies: 2 + 2
B3: M103205H795-MY261/M103202L889-SK1 (antibody, human IgG1, kappa)
heavy: B2 heavy with N238H
light: B1 light
notes: copies: 2 + 2
B4: M103205H795-MY265/M103202L889-SK1 (antibody, human IgG1, kappa)
heavy: B2 heavy with N238T
light: B1 light
notes: copies: 2 + 2
B5: M103205H795-MY264/M103202L889-SK1 (antibody, human IgG1, kappa)
heavy: B2 heavy with N238L
light: B1 light
notes: copies: 2 + 2
B6: M103205H795-MY260/M103202L889-SK1 (antibody, human IgG1, kappa)
heavy: B2 heavy with N238M
light: B1 light
notes: copies: 2 + 2
B7: M103205H795-MY267/M103202L889-SK1 (antibody, human IgG1, kappa)
heavy: B2 heavy with N238I
light: B1 light
notes: copies: 2 + 2
B8: M103205H795-MY263/M103202L889-SK1 (antibody, human IgG1, kappa)
heavy: B2 heavy with N238Q
light: B1 light
notes: copies: 2 + 2
B9: M103205H795-MY262/M103202L889-SK1 (antibody, human IgG1, kappa)
heavy: B2 heavy with N238V
light: B1 light
notes: copies: 2 + 2

Biological target: T1, cynomolgus monkey FcγRIIa2 …
Test: SPR (BIACORE), antibody captured, FcγR as analyte, 25°C
Description: (§1) The kinetic analysis of interactions between these antibodies and FcγR was carried out using BIACORE® T200 or BIACORE® 4000 (GE Healthcare). HBS-EP+ (GE Healthcare) was used as the running buffer, and the measurement temperature was set to 25° C. A chip produced by immobilizing Protein A. Protein A/G or mouse anti-human IgG kappa light chain (BD Biosciences) onto a Series S Sensor Chip CM4 or CM5 (GE Healthcare) by the amine-coupling method was used. […] After the measurement, the antibody captured on the chip was washed off by allowing reaction with 10 mM glycine-HCl, pH1.5 and 25 mM NaOH so that the chip was regenerated and used repeatedly. The sensorgrams obtained as measurement results were analyzed by the 1:1 Langmuir binding model using the BIACORE® Evaluation Software to calculate the binding rate constant ka (L/mol/s) and dissociation rate constant kd (l/s), and the dissociation constant KD (mol/L) was calculated from these values. […] Regarding such interactions, KD values were calculated using the following 1:1 binding model described in BIACORE® T100 Software Handbook BR1006-48 Edition AE.
(§2) The behavior of interacting molecules according to the 1:1 binding model on BIACORE® can be described by Equation 1: Req=C·R max/(KD+C)+RI, wherein, Req is a plot of steady-state binding levels to analyte concentration. C is concentration, RI is bulk refractive index contribution in the sample, and Rmax is analyte binding capacity of the surface. When this equation is rearranged, KD can be expressed as Equation 2: KD=C·Rmax/(Req−RI)−C. KD can be calculated by substituting the values of Rmax, RI, and C into Equation 1 or Equation 2. From the current measurement conditions, RI=0, C=2 μmol/L can be used.

Kd [nM]	Binder
5100	B1
1400	B2
4000	B3
1900	B4
5500	B5
3700	B6
20000	B7
3000	B8
1700	B9

Biological target: T2, cynomolgus monkey FcγRIIa3 …
Test: as above
Description: as §1, §2

Kd [nM]	Binder
17000	B1
3900	B2
6500	B3
4800	B4
16000	B5
14000	B6
7300	B7
7300	B8
8000	B9

Biological target: T3, cynomolgus monkey FcγRIIb extracellular …
Test: as above
Description: as §1, §2

Kd [nM]	Binder
1800	B1
430	B2
1500	B3
590	B4
2800	B5
1600	B6
840	B7
1000	B8
560	B9

Biological target: T4, human FcγRIIaH extracellular domain, …
Test: as above
Description: as §1, §2

Kd [nM]	Binder
690	B1
910	B2
240	B3
210	B4
1500	B5
910	B6
200	B7
320	B8
140	B9
